Reference: the supplement of paper PMC9112550, “Optimization of the antimicrobial peptide Bac7 by deep mutational scanning” (BMC Biology, 2022)

Tested on: Escherichia coli TOP10
Test: shrunken log2 fold change of peptide-encoding DNA abundance (4.5 h post-induction vs induction); higher = less antimicrobial activity (less host growth inhibition)
Conditions: time post-induction: 4.5 h; library: site-saturation at positions 5, 18, 19, 20
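Note: peptides expressed intracellularly from a pBAD plasmid library in pooled LB shake-flask culture, induced with 0.3% L-arabinose, DNA abundance read by NGS, three biological replicates, DESeq2 with apeglm shrinkage.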

Sequence	shrunken log2 fold change
RRIRSRPPRLPRPRPRPAMFPRP	-0.0843
RRIRCRPPRLPRPRPRPSNNPRP	-0.707
RRIRHRPPRLPRPRPRPVKPPRP	0.0296
RRIRMRPPRLPRPRPRPGSIPRP	0.239
RRIRFRPPRLPRPRPRPWDLPRP	2.08
RRIRWRPPRLPRPRPRPFTFPRP	-0.326
RRIRRRPPRLPRPRPRPCPDPRP	-0.0762
RRIRERPPRLPRPRPRPSWEPRP	-0.25
RRIRHRPPRLPRPRPRPLPQPRP	0.348
RRIRFRPPRLPRPRPRPDPQPRP	0.0361
RRIRYRPPRLPRPRPRPYTWPRP	-0.571
RRIRGRPPRLPRPRPRPFTSPRP	-0.0475
RRIRLRPPRLPRPRPRPGCHPRP	-0.268
RRIRDRPPRLPRPRPRPNAGPRP	0.149
RRIRARPPRLPRPRPRPMLHPRP	0.206
RRIRYRPPRLPRPRPRPVWPPRP	9.23e-05
RRIRWRPPRLPRPRPRPWCHPRP	-0.422
RRIRCRPPRLPRPRPRPCPNPRP	-0.14
RRIRGRPPRLPRPRPRPWNFPRP	-0.289
RRIRFRPPRLPRPRPRPRIFPRP	-0.102
RRIRPRPPRLPRPRPRPKYTPRP	-0.414
RRIRLRPPRLPRPRPRPDDWPRP	0.044
RRIRYRPPRLPRPRPRPWLGPRP	-0.0293
RRIRMRPPRLPRPRPRPKSAPRP	0.389
RRIRRRPPRLPRPRPRPGQDPRP	0.112

Sequence	shrunken log2 fold change
RRIRIRPPRLPRPRPRPFWNPRP	-0.277
RRIRARPPRLPRPRPRPNRSPRP	-0.229
RRIRWRPPRLPRPRPRPATKPRP	0.273
RRIRKRPPRLPRPRPRPPLMPRP	0.396
RRIRNRPPRLPRPRPRPAESPRP	0.37
RRIRSRPPRLPRPRPRPMWPPRP	0.447
RRIRPRPPRLPRPRPRPMDKPRP	-0.0612
RRIRKRPPRLPRPRPRPSIGPRP	-0.0755
RRIRIRPPRLPRPRPRPYKNPRP	-0.814
RRIRQRPPRLPRPRPRPYIHPRP	-0.912
RRIRYRPPRLPRPRPRPLSFPRP	-1.04
RRIRNRPPRLPRPRPRPIYLPRP	-0.376
RRIRNRPPRLPRPRPRPMEVPRP	-0.052
RRIRFRPPRLPRPRPRPMQWPRP	-0.113
RRIRLRPPRLPRPRPRPMFDPRP	-0.249
RRIRCRPPRLPRPRPRPRDKPRP	0.0174
RRIRERPPRLPRPRPRPGIAPRP	-0.183
RRIRNRPPRLPRPRPRPWYDPRP	-0.0695
RRIRCRPPRLPRPRPRPDFFPRP	0.035
RRIRYRPPRLPRPRPRPRVCPRP	0.0157
RRIRLRPPRLPRPRPRPAWNPRP	0.133
RRIRNRPPRLPRPRPRPNNAPRP	0.0167
RRIRERPPRLPRPRPRPFRLPRP	-0.51
RRIRIRPPRLPRPRPRPQRMPRP	-0.387
RRIRQRPPRLPRPRPRPDLYPRP	-0.105

Sequence	shrunken log2 fold change
RRIRARPPRLPRPRPRPPHLPRP	2.23
RRIRTRPPRLPRPRPRPDKLPRP	0.0136
RRIRVRPPRLPRPRPRPLQLPRP	-0.091
RRIRERPPRLPRPRPRPFDCPRP	-0.0657
RRIRWRPPRLPRPRPRPGDDPRP	0.351
RRIRARPPRLPRPRPRPPWRPRP	0.816
RRIRLRPPRLPRPRPRPQWLPRP	-0.141
RRIRVRPPRLPRPRPRPPEDPRP	0.425
RRIRSRPPRLPRPRPRPGQEPRP	-0.0151
RRIRARPPRLPRPRPRPTLKPRP	0.605
RRIRWRPPRLPRPRPRPLPGPRP	0.215
RRIRDRPPRLPRPRPRPVRIPRP	0.18
RRIRCRPPRLPRPRPRPIAYPRP	-0.113
RRIRLRPPRLPRPRPRPRSEPRP	0.235
RRIRFRPPRLPRPRPRPGTEPRP	0.0589
RRIRCRPPRLPRPRPRPKGHPRP	-0.17
RRIRVRPPRLPRPRPRPVWHPRP	0.119
RRIRNRPPRLPRPRPRPHYSPRP	-0.363
RRIRCRPPRLPRPRPRPNRRPRP	-0.0599
RRIRCRPPRLPRPRPRPKVVPRP	-0.0915
RRIRARPPRLPRPRPRPHFFPRP	1.8
RRIRCRPPRLPRPRPRPPCSPRP	-0.315
RRIRYRPPRLPRPRPRPDLDPRP	-0.181
RRIRMRPPRLPRPRPRPQTFPRP	-0.0186
RRIRKRPPRLPRPRPRPVMNPRP	-0.0155

Sequence	shrunken log2 fold change
RRIRVRPPRLPRPRPRPEHYPRP	0.0358
RRIRFRPPRLPRPRPRPHDQPRP	0.0225
RRIRARPPRLPRPRPRPTQDPRP	0.974
RRIRQRPPRLPRPRPRPDKWPRP	-0.00997
RRIRDRPPRLPRPRPRPRDFPRP	0.106
RRIRGRPPRLPRPRPRPMEVPRP	-0.121
RRIRPRPPRLPRPRPRPPHGPRP	0.374
RRIRLRPPRLPRPRPRPTNQPRP	-0.327
RRIRVRPPRLPRPRPRPSMKPRP	-0.363
RRIRKRPPRLPRPRPRPWCWPRP	0.357
RRIRGRPPRLPRPRPRPPQYPRP	0.38
RRIRSRPPRLPRPRPRPEMKPRP	0.114
RRIRCRPPRLPRPRPRPRWTPRP	0.236
RRIRNRPPRLPRPRPRPITNPRP	-0.279
RRIRQRPPRLPRPRPRPANPPRP	-0.234
RRIRDRPPRLPRPRPRPAHTPRP	0.0343
RRIRTRPPRLPRPRPRPPDKPRP	-0.146
RRIRIRPPRLPRPRPRPKFAPRP	-0.0494
RRIRQRPPRLPRPRPRPWHTPRP	-0.169
RRIRERPPRLPRPRPRPLQVPRP	-0.384
RRIRARPPRLPRPRPRPYQRPRP	-0.229
RRIRARPPRLPRPRPRPQEMPRP	-0.0254
RRIRGRPPRLPRPRPRPVDAPRP	0.395
RRIRIRPPRLPRPRPRPNMIPRP	-0.225
RRIRCRPPRLPRPRPRPMSQPRP	-0.0148

Sequence	shrunken log2 fold change
RRIRHRPPRLPRPRPRPLFIPRP	-0.68
RRIRERPPRLPRPRPRPPENPRP	0.222
RRIRSRPPRLPRPRPRPVWRPRP	0.33
RRIRLRPPRLPRPRPRPVTYPRP	-0.0255
RRIRTRPPRLPRPRPRPKQDPRP	0.075
RRIRFRPPRLPRPRPRPMVCPRP	-0.0374
RRIRHRPPRLPRPRPRPTKQPRP	-0.0343
RRIRKRPPRLPRPRPRPFRRPRP	0.0327
RRIRYRPPRLPRPRPRPPHAPRP	-0.0606
RRIRRRPPRLPRPRPRPRKNPRP	0.179
RRIRERPPRLPRPRPRPNVPPRP	-0.0158
RRIRMRPPRLPRPRPRPFCRPRP	0.315
RRIRTRPPRLPRPRPRPKDMPRP	-0.0311
RRIRFRPPRLPRPRPRPMDEPRP	0.0137
RRIRSRPPRLPRPRPRPCIFPRP	-0.471
RRIRYRPPRLPRPRPRPYLWPRP	-0.777
RRIRWRPPRLPRPRPRPGLPPRP	0.288
RRIRPRPPRLPRPRPRPTTIPRP	-0.223
RRIRRRPPRLPRPRPRPTSLPRP	0.0087
RRIRDRPPRLPRPRPRPSTWPRP	-0.0672
RRIRSRPPRLPRPRPRPFKLPRP	-0.71
RRIRIRPPRLPRPRPRPAHEPRP	0.215
RRIRDRPPRLPRPRPRPERWPRP	1.3
RRIRFRPPRLPRPRPRPMFLPRP	-0.712
RRIRPRPPRLPRPRPRPEYHPRP	-0.0649

Sequence	shrunken log2 fold change
RRIRFRPPRLPRPRPRPWYRPRP	-0.0778
RRIRERPPRLPRPRPRPLQRPRP	-0.131
RRIRFRPPRLPRPRPRPPWIPRP	0.3
RRIRQRPPRLPRPRPRPSCQPRP	-0.834
RRIRKRPPRLPRPRPRPPKIPRP	0.405
RRIRKRPPRLPRPRPRPIGGPRP	-0.494
RRIRMRPPRLPRPRPRPSDEPRP	0.958
RRIRLRPPRLPRPRPRPDDEPRP	-0.0861
RRIRHRPPRLPRPRPRPKCPPRP	-0.0954
RRIRIRPPRLPRPRPRPMLLPRP	0.0902
RRIRNRPPRLPRPRPRPPFQPRP	0.0529
RRIRKRPPRLPRPRPRPFGAPRP	0.45
RRIRCRPPRLPRPRPRPEEMPRP	0.028
RRIRCRPPRLPRPRPRPDQSPRP	0.112
RRIRWRPPRLPRPRPRPGMSPRP	0.893
RRIRHRPPRLPRPRPRPYCDPRP	-0.313
RRIRWRPPRLPRPRPRPRTCPRP	-0.045
RRIRSRPPRLPRPRPRPTDGPRP	-0.115
RRIRWRPPRLPRPRPRPQDPPRP	0.0126
RRIRIRPPRLPRPRPRPSRWPRP	0.324
RRIRTRPPRLPRPRPRPIHYPRP	-0.356
RRIRWRPPRLPRPRPRPNNVPRP	-0.207
RRIRNRPPRLPRPRPRPPRDPRP	0.499
RRIRVRPPRLPRPRPRPTWCPRP	0.216
RRIRHRPPRLPRPRPRPFCCPRP	-0.0718
